B1: Dpb3 (natural protein, S. cerevisiae, UniProt P27344 1-201, looked up)
chain: MSNLVKEKAPVFPISKVKKIAKCDPEYVITSNVAISATAFAAELFVQNLVEESLVLAQLNSKGKTSLRLSLNSIEECVEKRDNFRFLEDAIKQLKKNSALDKKRELNMQPGRSDQEVVIEEPELHEDDGVEEEEEEDEVSEEEEPVHNEELLDDSKDQQNDKSTRSVASLLSRFQYKSALDVGEHSDSSDIEVDHTKSTDP
notes: Dpb3, subunit of DNA polymerase epsilon, S. cerevisiae; over-expression vector pJL5 (Dpb3 and Dpb4); source: S. cerevisiae pY116, galactose-induced over-expression (pJL5), co-expressed with the other Pol ε subunits
B2: Dpb4 (natural protein, S. cerevisiae, UniProt Q04603 1-196, looked up)
chain: MPPKGWRKDAQGNYPTTSYIKEQENITIQDLLFPKSTIVNLAREVPQQSGKKLLINKDASLALQRGATVFVNHLLLFAREIAKSQDKKSCSVDDVLSALDHIGHSALKGPVRDKLDEYQAAVEQRKKEKLDSGEVDADGDIDMGEDKENVPVEKVKEHDEIEEQGDALQDVEESSEKKQKTESQDVETRVQNLEQT
notes: Dpb4, subunit of DNA polymerase epsilon, S. cerevisiae; over-expression vector pJL5 (Dpb3 and Dpb4); source: S. cerevisiae pY116, galactose-induced over-expression (pJL5), co-expressed with the other Pol ε subunits

Target: T1, Pol2 (S. cerevisiae, UniProt P21951 1-2222)
T1 construct: Pol2, catalytic subunit of DNA polymerase epsilon, S. cerevisiae; over-expression vector pJL1; also called catalytic subunit of DNA polymerase ε; source: S. cerevisiae pY116, galactose-induced over-expression (pJL1), co-expressed with the other Pol ε subunits
Assay: co-purification (ion-exchange and size-exclusion chromatography); Pol2, Dpb2-201, Dpb3 and Dpb4 co-over-expressed in S. cerevisiae pY116; Pol ε purification protocol as in ref. 23; Coomassie-stained 10% SDS-PAGE, band intensities measured
Settings: partners not purified

T1 sequence (P21951 whole entry): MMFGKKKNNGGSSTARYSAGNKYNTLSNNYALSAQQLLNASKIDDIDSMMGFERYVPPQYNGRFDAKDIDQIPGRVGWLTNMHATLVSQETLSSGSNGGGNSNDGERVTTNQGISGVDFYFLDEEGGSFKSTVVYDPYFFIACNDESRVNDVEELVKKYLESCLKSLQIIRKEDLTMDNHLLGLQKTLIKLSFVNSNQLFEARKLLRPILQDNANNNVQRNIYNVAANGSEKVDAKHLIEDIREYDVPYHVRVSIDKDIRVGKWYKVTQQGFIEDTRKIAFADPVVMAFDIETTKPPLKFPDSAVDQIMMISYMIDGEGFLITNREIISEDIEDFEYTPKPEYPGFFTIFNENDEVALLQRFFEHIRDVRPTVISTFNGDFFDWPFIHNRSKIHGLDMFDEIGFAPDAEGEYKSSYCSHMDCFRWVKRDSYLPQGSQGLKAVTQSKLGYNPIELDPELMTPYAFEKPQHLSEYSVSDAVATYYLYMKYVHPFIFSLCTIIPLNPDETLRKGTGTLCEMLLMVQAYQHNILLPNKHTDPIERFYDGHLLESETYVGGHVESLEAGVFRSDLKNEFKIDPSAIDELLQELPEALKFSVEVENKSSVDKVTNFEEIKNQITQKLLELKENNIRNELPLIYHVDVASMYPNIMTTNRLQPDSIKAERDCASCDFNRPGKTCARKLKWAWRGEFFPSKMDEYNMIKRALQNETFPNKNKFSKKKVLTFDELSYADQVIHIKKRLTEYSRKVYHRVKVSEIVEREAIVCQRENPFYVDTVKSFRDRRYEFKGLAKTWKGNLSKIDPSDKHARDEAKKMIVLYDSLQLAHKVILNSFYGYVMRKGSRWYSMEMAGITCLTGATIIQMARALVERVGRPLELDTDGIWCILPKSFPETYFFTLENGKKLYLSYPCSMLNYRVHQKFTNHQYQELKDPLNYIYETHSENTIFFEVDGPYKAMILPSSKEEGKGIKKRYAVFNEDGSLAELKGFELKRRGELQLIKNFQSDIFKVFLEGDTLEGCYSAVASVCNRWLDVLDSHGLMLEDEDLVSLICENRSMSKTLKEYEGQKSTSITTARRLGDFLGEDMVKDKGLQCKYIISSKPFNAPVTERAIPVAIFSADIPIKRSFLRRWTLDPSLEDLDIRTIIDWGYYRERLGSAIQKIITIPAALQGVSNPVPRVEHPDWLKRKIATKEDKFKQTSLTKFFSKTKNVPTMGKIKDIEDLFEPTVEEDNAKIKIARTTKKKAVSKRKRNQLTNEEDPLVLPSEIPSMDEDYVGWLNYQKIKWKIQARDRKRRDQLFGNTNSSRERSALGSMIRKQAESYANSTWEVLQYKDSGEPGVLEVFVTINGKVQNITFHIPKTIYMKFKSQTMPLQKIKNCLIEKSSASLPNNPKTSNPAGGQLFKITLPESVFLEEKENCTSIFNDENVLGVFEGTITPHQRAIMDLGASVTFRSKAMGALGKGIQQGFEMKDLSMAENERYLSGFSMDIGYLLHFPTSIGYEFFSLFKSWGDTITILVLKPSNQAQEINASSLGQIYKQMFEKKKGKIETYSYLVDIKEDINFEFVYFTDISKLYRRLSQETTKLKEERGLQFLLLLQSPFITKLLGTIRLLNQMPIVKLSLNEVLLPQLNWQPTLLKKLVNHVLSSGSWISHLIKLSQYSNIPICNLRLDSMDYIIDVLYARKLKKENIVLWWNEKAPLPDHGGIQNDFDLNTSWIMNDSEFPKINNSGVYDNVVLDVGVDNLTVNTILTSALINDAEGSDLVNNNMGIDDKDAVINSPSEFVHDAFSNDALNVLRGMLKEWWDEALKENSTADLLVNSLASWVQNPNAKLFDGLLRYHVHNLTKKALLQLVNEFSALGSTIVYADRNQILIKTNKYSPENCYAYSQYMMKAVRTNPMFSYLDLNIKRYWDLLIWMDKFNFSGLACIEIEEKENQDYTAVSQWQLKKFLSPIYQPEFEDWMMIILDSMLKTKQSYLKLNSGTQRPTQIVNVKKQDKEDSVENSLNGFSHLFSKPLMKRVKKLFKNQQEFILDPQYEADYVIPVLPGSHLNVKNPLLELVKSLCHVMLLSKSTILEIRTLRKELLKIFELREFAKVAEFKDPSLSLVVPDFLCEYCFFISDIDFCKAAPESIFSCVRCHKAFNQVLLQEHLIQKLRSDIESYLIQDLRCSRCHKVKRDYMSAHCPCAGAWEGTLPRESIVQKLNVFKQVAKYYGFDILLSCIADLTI

stoichiometry N	Binder
~1.1 Dpb3 per Pol2	B1
~1.4 Dpb4 per Pol2	B2

From PMC3526264, “The C-terminus of Dpb2 is required for interaction with Pol2 and for cell viability” (Nucleic Acids Research, 2012)
